The supplement of paper PMC10567573

B1: MAGEA6 (parent)
chain: KISGGPRISYPLLHEWALREGEE
B2: ZNF8 (parent)
chain: VHVIGVEEPSVGASMLFDIREST

Variants of: B1
Assay: protein stability index of a GFP-peptide fusion (GPS, HEK-293T) (PSI 1-6); higher = more stable
Details: c terminus: native
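Further: lentivirally expressed fusions sorted by FACS into six bins by GFP to DsRed ratio, PSI derived from sequencing read proportions per bin multiplied by bin number.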

Protein stability index, by site and new letter:
E23: Y 2.56, T 2.25, F 2.43, N 2.73, L 2.27, C 1.64, A 1.23, G 2.41, W 1.94, H 2.73, M 2.17, R 1.88, Q 2.48, K 2.88, I 1.74, P 1.89, D 3.38
E20: L 3.74, T 2.92, S 4.57, V 3.06, N 2.34, W 2.32, P 2.36
G21: C 3.26, K 3.31, D 4.14, Y 2.4
E22: M 2.19, W 1.87, N 2.53, Q 3.01, I 2.37, V 1.06, Y 2.29, R 3.04, H 2.49, P 1.85, C 1.88, S 2.12, F 2.75, A 2.4, D 3.35, L 2.44, G 2.18, T 2.36

Variants of: B2
Assay: as above
Details: c terminus: native

Protein stability index of substitutions, site by site:
S14: W 3.13, Q 2.12, E 2.28, K 2, M 2.31, N 2.4, C 1.54, F 2.28, G 1.92, R 1.9, V 3.14, I 3.13, Y 2.78, P 2.63, A 1.86, D 2.62, L 2.31, T 2.26, H 1.95
G12: P 2.16, E 2.45, D 2.87, V 1.7, Y 2.95, I 1.78, K 1.9, T 1.56, L 1.52, H 2.1, Q 1.88, C 1.78, M 1.71, W 2.88, F 2.1, A 1.93, S 2.19, R 2.4, N 2.29
I4: L 2.51, M 2.77, T 3.3, C 2.59, Y 2.16, V 2.54, H 2.62, Q 3.47, A 3.55, K 3.18, R 2.9, E 3.73, D 3.97, S 3.63, N 3.43, G 3.34, W 1.94, P 3.88, F 2.13
P9: C 1.87, E 2.44, I 2.47, G 2.31, A 2.65, H 1.74, N 2.27, F 2.45, D 2.53, V 1.44, R 2.27, T 2.12, S 1.73, K 2.31, W 3.09, M 2.09, Y 2.19, L 2.23, Q 2.17
V1: K 3.52, E 4.18, I 2, G 3.85, M 2.29, W 2.06, L 1.79, D 3.96, H 3.78, T 3.92, A 3.67, N 4.07, Q 3.88, S 3.97, F 1.82, R 2.82, P 3.77, Y 2.29, C 1.93
G5: V 2.71, D 3.11, I 2.51, Y 2.35, S 1.56, K 1.95, P 2.36, M 2.84, N 2.18, L 3.04, C 2.82, W 2.37, A 1.63, R 1.61, T 2.24, E 2.42, F 2.47, Q 1.66, H 1.6
V6: R 2.35, E 2.99, N 3.61, M 1.76, I 1.75, P 1.82, S 2.75, K 2.61, D 3.75, Y 1.9, C 1.96, W 1.76, A 2.52, Q 2.64, T 2.33, H 2.46, F 2.27, G 2.54, L 2.25
E7: W 3.4, T 1.61, G 1.94, S 1.94, K 1.72, Q 1.55, M 2.14, D 1.86, H 1.15, V 2.84, A 1.69, P 2.2, N 1.88, L 1.92, Y 2.91, C 1.81, R 1.33, F 3.54, I 1.7
E8: G 2.18, F 2.49, I 4.45, D 1.69, A 2.25, Y 2.87, K 2.11, V 2.45, Q 1.78, N 1.48, H 2.08, S 2.09, L 2.75, W 4.73, C 3.48, M 1.95, R 1.89, P 1.75, T 1.73
S10: W 1.68, F 1.26, P 2.03, H 2.1, G 2.1, M 1.52, T 2.24, N 2.23, V 2.16, R 1.71, Q 2.28, Y 2.02, E 2.25, I 2.91, K 1.99, L 1.84, A 2.58, D 2.48, C 1.85
L16: A 2.52, D 3.53, C 2.19
M15: I 2.59, T 2.3, G 3.15, W 2.34, Y 2.2, Q 2.75, E 3.67, V 1.79, H 2.4, L 1.74, A 2.88, N 2.75, P 2.78, K 3.24, F 1.62, R 2.47, S 2.78, C 2.49, D 2.93
V3: N 3.89, I 1.84, Q 3.87, G 3.42, T 3.08, W 1.47, E 4.1, K 3.36, S 3.42, P 3.49, A 3.18, R 2.81, F 1.94, L 1.88, Y 1.54, M 2.84, C 2.74, H 3.02, D 3.95
V11: T 2.24, E 2.87, F 2.17, L 1.85, Q 2.1, A 2.38, R 1.9, I 1.91, H 2.42, N 2.35, G 2.28, S 2.33, P 2.65, K 2.27, W 1.44, Y 1.92, C 1.91, D 2.69, M 1.82
H2: D 3.42, K 2.29, G 3.35, P 3.59, E 3.35, M 1.43, W 2.25, Q 2.27, A 2.67, Y 2.51, I 2.56, L 2.9, N 2.95, S 2.81, F 1.97, V 1.83, C 1.63, T 1.79, R 2.09
A13: K 2.2, T 1.93, P 2.51, Q 1.98, S 1.96, C 1.34, D 2.69, M 1.57, I 2.78, E 2.61, N 2.31, Y 1.66, W 3.12, R 1.97, L 2.41, F 2.8, V 1.87, H 1.95, G 2.74
